Reference: the supplement of paper PMC9112550, “Optimization of the antimicrobial peptide Bac7 by deep mutational scanning” (BMC Biology, 2022)

Tested on: Escherichia coli TOP10
Assay: shrunken log2 fold change of peptide-encoding DNA abundance (4.5 h post-induction vs induction); higher = less antimicrobial activity (less host growth inhibition)
Details: time post-induction: 4.5 h; library: site-saturation at positions 5, 18, 19, 20
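Also: peptides expressed intracellularly from a pBAD plasmid library in pooled LB shake-flask culture, induced with 0.3% L-arabinose, DNA abundance read by NGS, three biological replicates, DESeq2 with apeglm shrinkage.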

Sequence	shrunken log2 fold change
RRIRTRPPRLPRPRPRPLHHPRP	-0.494
RRIRIRPPRLPRPRPRPNVDPRP	-0.272
RRIRARPPRLPRPRPRPSFLPRP	-0.338
RRIRSRPPRLPRPRPRPCDTPRP	-0.227
RRIRNRPPRLPRPRPRPPTFPRP	0.145
RRIRYRPPRLPRPRPRPEWPPRP	-0.0693
RRIRFRPPRLPRPRPRPTLIPRP	-0.19
RRIRTRPPRLPRPRPRPYQFPRP	0.0636
RRIRARPPRLPRPRPRPNQFPRP	-0.014
RRIRYRPPRLPRPRPRPKMRPRP	0.198
RRIRDRPPRLPRPRPRPPQIPRP	-0.179
RRIRHRPPRLPRPRPRPKHTPRP	-0.104
RRIRWRPPRLPRPRPRPPQNPRP	0.91
RRIRHRPPRLPRPRPRPQHAPRP	0.0729
RRIRKRPPRLPRPRPRPHTTPRP	0.0925
RRIRPRPPRLPRPRPRPRPAPRP	0.529
RRIRFRPPRLPRPRPRPSFCPRP	-0.373
RRIRWRPPRLPRPRPRPLSDPRP	0.254
RRIRRRPPRLPRPRPRPLRYPRP	0.463
RRIRTRPPRLPRPRPRPHWKPRP	0.00556
RRIRHRPPRLPRPRPRPVWFPRP	0.0927
RRIRHRPPRLPRPRPRPFYFPRP	-0.355
RRIRVRPPRLPRPRPRPRMCPRP	-0.35
RRIRVRPPRLPRPRPRPDGPPRP	0.0955
RRIRYRPPRLPRPRPRPGQLPRP	-0.284

Sequence	shrunken log2 fold change
RRIRMRPPRLPRPRPRPCGPPRP	0.481
RRIRDRPPRLPRPRPRPNMKPRP	0.818
RRIRGRPPRLPRPRPRPDEHPRP	1.5
RRIRYRPPRLPRPRPRPPFKPRP	-0.554
RRIRWRPPRLPRPRPRPDDPPRP	-0.0101
RRIRRRPPRLPRPRPRPELWPRP	0.518
RRIRNRPPRLPRPRPRPDRSPRP	-0.043
RRIRSRPPRLPRPRPRPESQPRP	0.0194
RRIRHRPPRLPRPRPRPGRIPRP	0.136
RRIRVRPPRLPRPRPRPWDVPRP	-0.0177
RRIRARPPRLPRPRPRPPDPPRP	1
RRIRHRPPRLPRPRPRPQSPPRP	0.0863
RRIRHRPPRLPRPRPRPKWDPRP	-0.00576
RRIRCRPPRLPRPRPRPTKTPRP	0.137
RRIRGRPPRLPRPRPRPEWTPRP	1.27
RRIRTRPPRLPRPRPRPEEFPRP	-0.0783
RRIRKRPPRLPRPRPRPEIVPRP	1.08
RRIRQRPPRLPRPRPRPWRKPRP	-0.0153
RRIRTRPPRLPRPRPRPLLFPRP	-0.181
RRIRDRPPRLPRPRPRPWHLPRP	-0.231
RRIRHRPPRLPRPRPRPYLQPRP	-0.0639
RRIRLRPPRLPRPRPRPTFGPRP	-0.0654
RRIRWRPPRLPRPRPRPMGQPRP	0.0149
RRIRWRPPRLPRPRPRPLGKPRP	0.136
RRIRVRPPRLPRPRPRPWEIPRP	-0.00992

Sequence	shrunken log2 fold change
RRIRPRPPRLPRPRPRPCQDPRP	-0.006
RRIRMRPPRLPRPRPRPICFPRP	0.149
RRIRRRPPRLPRPRPRPRRIPRP	0.251
RRIRERPPRLPRPRPRPWMYPRP	-0.508
RRIRKRPPRLPRPRPRPYGCPRP	-0.00151
RRIRGRPPRLPRPRPRPNICPRP	0.168
RRIRVRPPRLPRPRPRPCWDPRP	-0.154
RRIRDRPPRLPRPRPRPIIPPRP	-0.644
RRIRGRPPRLPRPRPRPQTTPRP	0.889
RRIRSRPPRLPRPRPRPIIQPRP	-0.429
RRIRCRPPRLPRPRPRPECVPRP	0.588
RRIRFRPPRLPRPRPRPRNKPRP	-0.174
RRIRQRPPRLPRPRPRPVKAPRP	0.198
RRIRERPPRLPRPRPRPEFVPRP	0.137
RRIRARPPRLPRPRPRPFNDPRP	-0.147
RRIRERPPRLPRPRPRPWGVPRP	-0.284
RRIRPRPPRLPRPRPRPKQCPRP	0.147
RRIRCRPPRLPRPRPRPDIMPRP	-0.0409
RRIRYRPPRLPRPRPRPMAAPRP	-0.115
RRIRVRPPRLPRPRPRPLVMPRP	-0.902
RRIRYRPPRLPRPRPRPTATPRP	-0.038
RRIRDRPPRLPRPRPRPVYPPRP	-0.089
RRIRCRPPRLPRPRPRPCEYPRP	-0.163
RRIRNRPPRLPRPRPRPHWHPRP	-0.65
RRIRIRPPRLPRPRPRPGCIPRP	-0.523

Sequence	shrunken log2 fold change
RRIRMRPPRLPRPRPRPTWPPRP	0.837
RRIRFRPPRLPRPRPRPRNMPRP	-0.127
RRIRVRPPRLPRPRPRPIMWPRP	0.03
RRIRRRPPRLPRPRPRPLRAPRP	1.17
RRIRRRPPRLPRPRPRPIHTPRP	0.00898
RRIRKRPPRLPRPRPRPIDAPRP	0.318
RRIRLRPPRLPRPRPRPLKHPRP	-0.161
RRIRIRPPRLPRPRPRPTTDPRP	-0.0551
RRIRTRPPRLPRPRPRPNETPRP	0.0139
RRIRTRPPRLPRPRPRPSNSPRP	-1.22
RRIRNRPPRLPRPRPRPPKSPRP	0.338
RRIRWRPPRLPRPRPRPFRIPRP	-0.5
RRIRFRPPRLPRPRPRPGKEPRP	-0.166
RRIRCRPPRLPRPRPRPVWPPRP	0.239
RRIRNRPPRLPRPRPRPMQKPRP	0.0161
RRIRTRPPRLPRPRPRPCVRPRP	0.116
RRIRQRPPRLPRPRPRPMVHPRP	-0.0226
RRIRERPPRLPRPRPRPIHHPRP	-0.7
RRIRYRPPRLPRPRPRPPDSPRP	-0.0664
RRIRCRPPRLPRPRPRPCIVPRP	-0.718
RRIRGRPPRLPRPRPRPYDIPRP	-0.068
RRIRFRPPRLPRPRPRPHVAPRP	0.119
RRIRKRPPRLPRPRPRPDYTPRP	-0.193
RRIRKRPPRLPRPRPRPYWIPRP	-0.0363
RRIRPRPPRLPRPRPRPEHTPRP	-0.112

Sequence	shrunken log2 fold change
RRIRDRPPRLPRPRPRPCHTPRP	-0.234
RRIRFRPPRLPRPRPRPQAQPRP	0.023
RRIRTRPPRLPRPRPRPTPDPRP	0.306
RRIRARPPRLPRPRPRPQYHPRP	-0.398
RRIRDRPPRLPRPRPRPNRMPRP	-0.196
RRIRARPPRLPRPRPRPNKKPRP	-0.00857
RRIRYRPPRLPRPRPRPEMWPRP	0.0929
RRIRIRPPRLPRPRPRPLMCPRP	-0.164
RRIRQRPPRLPRPRPRPIHIPRP	-0.187
RRIRTRPPRLPRPRPRPKANPRP	-0.00404
RRIRHRPPRLPRPRPRPDKAPRP	-0.468
RRIRTRPPRLPRPRPRPITMPRP	-0.595
RRIRFRPPRLPRPRPRPYQRPRP	-0.238
RRIRIRPPRLPRPRPRPPCTPRP	-0.332
RRIRYRPPRLPRPRPRPSASPRP	-0.071
RRIRNRPPRLPRPRPRPSCGPRP	-0.178
RRIRPRPPRLPRPRPRPGATPRP	0.54
RRIRCRPPRLPRPRPRPATRPRP	0.366
RRIRMRPPRLPRPRPRPMINPRP	-0.00763
RRIRWRPPRLPRPRPRPFEVPRP	0.0389
RRIRMRPPRLPRPRPRPWFDPRP	0.00362
RRIRVRPPRLPRPRPRPGPGPRP	0.298
RRIRTRPPRLPRPRPRPKMEPRP	-0.0203
RRIRKRPPRLPRPRPRPHANPRP	0.18
RRIRLRPPRLPRPRPRPLMDPRP	-0.0257

Sequence	shrunken log2 fold change
RRIRYRPPRLPRPRPRPSFCPRP	-0.793
RRIRDRPPRLPRPRPRPDWFPRP	-0.0209
RRIRYRPPRLPRPRPRPHTIPRP	-0.852
RRIRGRPPRLPRPRPRPKKMPRP	0.572
RRIRGRPPRLPRPRPRPWSKPRP	-0.423
RRIRTRPPRLPRPRPRPFWRPRP	0.112
RRIRKRPPRLPRPRPRPHHDPRP	-0.121
RRIRFRPPRLPRPRPRPWCCPRP	-0.654
RRIRKRPPRLPRPRPRPKTIPRP	0.0745
RRIRVRPPRLPRPRPRPWEEPRP	-0.317
RRIRKRPPRLPRPRPRPPCGPRP	0.614
RRIRRRPPRLPRPRPRPGCVPRP	0.329
RRIRGRPPRLPRPRPRPKIGPRP	0.752
RRIRHRPPRLPRPRPRPKTQPRP	-0.15
RRIRTRPPRLPRPRPRPYGAPRP	-0.0628
RRIRVRPPRLPRPRPRPSCAPRP	-0.16
RRIRFRPPRLPRPRPRPIELPRP	-0.537
RRIRHRPPRLPRPRPRPMETPRP	-0.0865
RRIRRRPPRLPRPRPRPVWWPRP	0.703
RRIRQRPPRLPRPRPRPEMTPRP	0.0231
RRIRSRPPRLPRPRPRPGLGPRP	0.485
RRIRTRPPRLPRPRPRPSKHPRP	-0.351
RRIRQRPPRLPRPRPRPYPKPRP	0.00727
RRIRTRPPRLPRPRPRPCHKPRP	0.014
RRIRWRPPRLPRPRPRPPHWPRP	0.592
